B1: J6H15L16 antibody (antibody, V domains shown)
VH: QEQLVESGGGLVQPEGSLTLTCTASGFSFSTNYWICWVRQAPGKGLEWTACIYIGGRGSIYYASWAKGRFTISKTSSTTVTLQMTSLTAADTATYFCARDLTTAYGATDLRFWGPGTLVTVSS
VL: DVVMTQTPSPVSAAVGGTVSISCQSSQSVGDNNRLSWFQQKPGQPPKLLIYSASTLASGVPSRFKGSGSGTEYTLTISGVQCDDAATYYCLGEFSGSDEDVFGGGTEVVVK
notes: the constant regions are not
B2: anti-IDO1 antibody SP260 (antibody, V domains shown)
VH: B1 VH with I54V
VL: B1 VL
notes: the constant regions are not
B3: J6H20L16 antibody (antibody, V domains shown)
VH: B1 VH with F96S
VL: B1 VL
notes: the constant regions are not
B4: J6H12L16 antibody (antibody, V domains shown)
VH: B1 VH with Q13R
VL: B1 VL
notes: the constant regions are not

Numbering of substitutions follows the chain as printed.

human indoleamine 2,3-dioxygenase 1 (IDO1), sequence (P14902 whole entry): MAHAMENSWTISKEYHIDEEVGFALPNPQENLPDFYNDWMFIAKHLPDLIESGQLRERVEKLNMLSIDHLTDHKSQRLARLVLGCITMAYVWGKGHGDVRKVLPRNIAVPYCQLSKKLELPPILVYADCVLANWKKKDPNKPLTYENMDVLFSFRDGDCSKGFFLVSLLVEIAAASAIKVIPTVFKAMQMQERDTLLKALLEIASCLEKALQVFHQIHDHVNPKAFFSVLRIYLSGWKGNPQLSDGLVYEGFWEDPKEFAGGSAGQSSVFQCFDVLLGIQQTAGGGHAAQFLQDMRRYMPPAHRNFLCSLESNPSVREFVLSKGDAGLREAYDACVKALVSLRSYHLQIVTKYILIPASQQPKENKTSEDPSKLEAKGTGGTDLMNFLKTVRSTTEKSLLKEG

In this assay the target is human indoleamine 2,3-dioxygenase 1 (IDO1) (human, UniProt P14902 1-403). The assay can be described thus: IHC on FFPE HeLa cells (untreated or IFN-gamma treated) and FFPE human tissues. How it is done:
The anti-IDO1 antibodies generated in Example 1 were used in further IHC analyses. For IHC analyses, tissue sections were incubated with the antibodies for 16 min followed by standard washes and secondary detection with Optiview DAB IHC Detection Kit (Ventana Medical System, Inc., Tucson, Ariz.). The specificity of each antibody was assessed on formalin-fixed, paraffin-embedded (FFPE) cells with different IDO1 expression levels (human cervical cancer HeLa cells that are either untreated as control (negative) or treated with interferon-γ (high expression); see FIGS. 2A-2b) or from different tissue types (Tonsil, Thymus, Colon, Endometrial adenocarcinoma, Ovarian adenocarcinoma, Pancreatic adenocarcinoma, and Stomach adenocarcinoma; see FIGS. 3A-3G).
With B1, the binding result is listed as “binds”.

With B2, the binding result was “binds”.

With B3, the binding result is “binds”.

For B4, the binding result was “binds”.
